Measurements reported in patent US20040063635A1.

Target: HSA/hEPO (83.5 Kd) (human)
Test: double-antibody sandwich ELISA (R&D Systems EPO kit), against the recombinant human EPO standard

activity compared with the standard (of the activity of the EPO standard): 0.1
Substance: anti-EPO antibodies of the EPO ELISA kit from R&D Systems (tool reagent)
